Three proteins from publication PMC3747146 (PLoS ONE, 2013) can be followed below.

This data set concerns the molecule itself. Kind of data set: SEC; Superdex 200 on an ÄKTA FPLC at 4°C, PBS with 10% glycerol (pH 7.4), flow 0.35 ml/min; recombinant proteins released from GST with PreScission.

B1: MALT1(ΔNT), wildtype protease domain and C-terminal extension (aa 333-824) (domain or fragment, UniProt Q9UDY8 333-824, looked up)
chain: QTTDQPLAKDKVALLIGNMNYREHPKLKAPLVDVYELTNLLRQLDFKVVSLLDLTEYEMRNAVDEFLLLLDKGVYGLLYYAGHGYENFGNSFMVPVDAPNPYRSENCLCVQNILKLMQEKETGLNVFLLDMCRKRNDYDDTIPILDALKVTANIVFGYATCQGAEAFEIQHSGLANGIFMKFLKDRLLEDKKITVLLDEVAEDMGKCHLTKGKQALEIRSSLSEKRALTDPIQGTEYSAESLVRNLQWAKAHELPESMCLKFDCGVQIQLGFAAEFSNVMIIYTSIVYKPPEIIMCDAYVTDFPLDLDIDPKDANKGTPEETGSYLVSKDLPKHCLYTRLSSLQKLKEHLVFTVCLSYQYSGLEDTVEDKQEVNVGKPLIAKLDMHRGLGRKTCFQTCLMSNGPYQSSAATSGGAGHYHSLQDPFHGVYHSHPGNPSNVTPADSCHCSRTPDAFISSFAHHASCHFSRSNVPVETTDEIPFSFSDRLRISEK
notes: MALT1 (paracaspase), protease domain and C-terminal extension, aa 333-824; also called ΔNT construct; source: E. coli BL21, GST fusion purified on glutathione-Sepharose, released with PreScission enzyme
As for B1, the binding result is recorded as “binds”.

B2: MALT1(ΔNT) E549A, protease domain and C-terminal extension (aa 333-824) (domain or fragment, UniProt Q9UDY8 333-824, looked up)
chain: QTTDQPLAKDKVALLIGNMNYREHPKLKAPLVDVYELTNLLRQLDFKVVSLLDLTEYEMRNAVDEFLLLLDKGVYGLLYYAGHGYENFGNSFMVPVDAPNPYRSENCLCVQNILKLMQEKETGLNVFLLDMCRKRNDYDDTIPILDALKVTANIVFGYATCQGAEAFEIQHSGLANGIFMKFLKDRLLEDKKITVLLDEVAEDMGKCHLTKGKQALAIRSSLSEKRALTDPIQGTEYSAESLVRNLQWAKAHELPESMCLKFDCGVQIQLGFAAEFSNVMIIYTSIVYKPPEIIMCDAYVTDFPLDLDIDPKDANKGTPEETGSYLVSKDLPKHCLYTRLSSLQKLKEHLVFTVCLSYQYSGLEDTVEDKQEVNVGKPLIAKLDMHRGLGRKTCFQTCLMSNGPYQSSAATSGGAGHYHSLQDPFHGVYHSHPGNPSNVTPADSCHCSRTPDAFISSFAHHASCHFSRSNVPVETTDEIPFSFSDRLRISEK
notes: MALT1 (paracaspase), protease domain and C-terminal extension, aa 333-824, with E549A; source: E. coli BL21, GST fusion purified on glutathione-Sepharose, released with PreScission enzyme
B2: the binding result was “binds”.

B3: MALT1(Casp-like), wildtype isolated protease domain (aa 333-566) (domain or fragment, UniProt Q9UDY8 333-566, looked up)
chain: QTTDQPLAKDKVALLIGNMNYREHPKLKAPLVDVYELTNLLRQLDFKVVSLLDLTEYEMRNAVDEFLLLLDKGVYGLLYYAGHGYENFGNSFMVPVDAPNPYRSENCLCVQNILKLMQEKETGLNVFLLDMCRKRNDYDDTIPILDALKVTANIVFGYATCQGAEAFEIQHSGLANGIFMKFLKDRLLEDKKITVLLDEVAEDMGKCHLTKGKQALEIRSSLSEKRALTDPIQG
notes: MALT1 (paracaspase), isolated protease (caspase-like) domain, aa 333-566; also called Casp-like construct; MALT1 caspase-like domain; source: E. coli BL21, GST fusion purified on glutathione-Sepharose, released with PreScission enzyme
As usually defined, the stoichiometry N is the number of molecules, sites or subunits per partner or assembly. Take B3: the “stoichiometry N” value turned out to be 2.
